Consider 240 variants from paper PMC11969024, “Development of chemokine network inhibitors using combinatorial saturation mutagenesis” (Communications Biology, 2025).

B1: peptide HD2 (from tick evasin EVA4) / CCL22 (biotinylated, synthetic) (parent)
chain 1: EEDDYTAYAPLTCYFT
chain 2: GPYGANMEDSVCCRDYVRYRLPLRVVKHFYWTSDSCPRPGVVLLTFRDKEICADPRVPWVKMILNKLSQ
B2: peptide HD2 (from tick evasin EVA4) / CCL17 (biotinylated, synthetic) (parent)
chain 1: EEDDYTAYAPLTCYFT
chain 2: ARGTNVGRECCLEYFKGAIPLRKLKTWYQTSEDCSRDAIVFVTVQGRAICSDPNNKRVKNAVKYLQSLERS
B3: peptide HD2 (from tick evasin EVA4) / CCL19 (biotinylated, synthetic) (parent)
chain 1: EEDDYTAYAPLTCYFT
chain 2: GTNDAEDCCLSVTQKPIPGYIVRNFHYLLIKDGCRVPAVVFTTLRGRQLCAPPDQPWVERIIQRLQRTSAKMKRRSS
B4: peptide HD2 (from tick evasin EVA4) / CXCL13 (biotinylated, synthetic) (parent)
chain 1: EEDDYTAYAPLTCYFT
chain 2: VLEVYYTSLRCRCVQESSVFIPRRFIDRIQILPRGNGCPRKEIIVWKKNKSIVCVDPQAEWIQRMMEVLRKRSSSTLPVPVFKRKIP

In one assay the parent is B1. The note with it: with CCL22 (biotinylated, synthetic); scale: log2.
For chain 1 P10I, the enrichment was -8.44.
Take chain 1 P10Q: the enrichment is -6.39.
Still for that read-out and setting: the result for chain 1 P10T reads -7.86; that for chain 1 P10M, -8.5.
Consider chain 1 P10C, for which the enrichment was -9.72.
In the case of chain 1 P10K, the enrichment was -6.96.
Turning to chain 1 P10S, the enrichment was -9.19.
For chain 1 P10V, the enrichment is -10.4.
Same read-out and setting: the result for chain 1 P10A reads -8.71.
As to chain 1 P10R, the enrichment is -9.08.
The same measure, in the same setting: the result for chain 1 P10N reads -8.02.
chain 1 P10H: the enrichment is -7.95.
Take chain 1 A7C: the enrichment is -9.84.
chain 1 D3Q: the enrichment was -4.99.
chain 1 D3C: the enrichment is -9.89.
As to chain 1 D3R, the enrichment is -7.45.
Still for that read-out and setting: then chain 1 E2R, with -7.13; and chain 1 E2C, with -10.
With chain 1 A9D, the enrichment was -8.23.
For the variant chain 1 A9I, the enrichment is -9.99.
On to chain 1 A9C, for which the enrichment is -10.1.
The same measure, in the same setting: then chain 1 A9P, with -7.8.
Take chain 1 Y8G: the enrichment was -8.71.
Regarding chain 1 Y8P, the enrichment is -7.86.
Regarding chain 1 Y8K, the enrichment is -6.07.
For chain 1 Y8I, the enrichment is -9.38.
On the same count and under the same terms, then chain 1 Y8N, with -8.13; and chain 1 Y8M, with -8.49.
Still for that read-out and setting: then chain 1 Y8Q, with -6.36; and chain 1 Y8R, with -8.18.
Still for that read-out and setting: the result for chain 1 Y8H reads -7.57.
Take chain 1 Y8T: the enrichment is -8.48.
For chain 1 Y8E, the enrichment was -6.18.
Take chain 1 D4K: the enrichment is -6.88.
Regarding chain 1 D4C, the enrichment is -9.24.
Regarding chain 1 D4H, the enrichment was -7.77.
On to chain 1 D4G, for which the enrichment is -6.22.
On to chain 1 D4T, for which the enrichment is -7.88.
For chain 1 D4R, the enrichment was -7.09.
In the case of chain 1 Y5Q, the enrichment is -5.36.
For the variant chain 1 Y5R, the enrichment is -7.05.
For chain 1 Y5G, the enrichment is -7.11.
As for chain 1 Y5P, the enrichment was -6.73.
Consider chain 1 Y5K, for which the enrichment is -5.6.
In the case of chain 1 E1C, the enrichment is -9.75.
chain 1 C13K: the enrichment is -9.12.
As to chain 1 C13Q, the enrichment is -9.37.
Regarding chain 1 C13R, the enrichment is -10.5.

The variants in another assay derive from B2. The note with it: with CCL17 (biotinylated, synthetic); scale: log2.
chain 1 Y8E: the enrichment was -6.29.
For the variant chain 1 Y8G, the enrichment was -8.81.
For chain 1 Y8D, the enrichment is -7.65.
Turning to chain 1 Y8T, the enrichment is -8.59.
With chain 1 Y8Q, the enrichment was -6.46.
For chain 1 Y8N, the enrichment is -8.23.
With chain 1 Y8I, the enrichment was -9.49.
Regarding chain 1 Y8K, the enrichment is -6.17.
The same measure, in the same setting: then chain 1 Y8A, with -8.88.
Regarding chain 1 Y8P, the enrichment was -7.97.
For chain 1 Y8M, the enrichment is -8.59.
Turning to chain 1 Y8R, the enrichment is -8.29.
As for chain 1 E1C, the enrichment is -9.85.
On to chain 1 P10C, for which the enrichment is -9.82.
Same read-out and setting: the result for chain 1 P10V reads -10.5.
For chain 1 P10H, the enrichment is -8.06.
As to chain 1 P10S, the enrichment is -9.3.
On to chain 1 P10N, for which the enrichment is -8.12.
On to chain 1 P10R, for which the enrichment is -9.18.
On the same count and under the same terms, then chain 1 P10K, with -7.07; and chain 1 P10I, with -8.54.
Consider chain 1 P10M, for which the enrichment is -8.6.
Take chain 1 T6C: the enrichment is -11.2.
Regarding chain 1 Y5T, the enrichment was -7.77.
In the case of chain 1 Y5K, the enrichment is -5.7.
chain 1 Y5R: the enrichment is -7.15.
On to chain 1 Y5N, for which the enrichment was -7.81.
On to chain 1 Y5Q, for which the enrichment was -5.46.
chain 1 Y5E: the enrichment is -3.59.
With chain 1 D4C, the enrichment is -9.34.
On to chain 1 Y14R, for which the enrichment is -10.2.
The same measure, in the same setting: then chain 1 Y14N, with -7; and chain 1 Y14D, with -7.63; and chain 1 Y14E, with -8.87.

Another assay covers variants of B3. The following applies: with CCL19 (biotinylated, synthetic); scale: log2.
Consider chain 1 Y5P, for which the enrichment is -5.7.
In the case of chain 1 Y5K, the enrichment was -4.57.
Consider chain 1 Y5Q, for which the enrichment is -4.33.
Consider chain 1 Y5A, for which the enrichment is -6.04.
In the case of chain 1 Y5V, the enrichment was -8.24.
chain 1 Y5E: the enrichment is -2.46.
For the variant chain 1 Y5G, the enrichment is -6.08.
Turning to chain 1 Y5R, the enrichment is -6.02.
As to chain 1 T16P, the enrichment was -6.44.
Still for that read-out and setting: the result for chain 1 T12D reads -7.63.
As for chain 1 T12G, the enrichment is -9.27.
chain 1 T12Q: the enrichment was -6.6.
As for chain 1 Y8P, the enrichment was -6.84.
chain 1 Y8I: the enrichment was -8.35.
chain 1 Y8D: the enrichment is -6.51.
Consider chain 1 Y8G, for which the enrichment is -7.68.
On to chain 1 Y8Q, for which the enrichment was -5.33.
Still for that read-out and setting: then chain 1 Y8A, with -7.75.
For the variant chain 1 Y8E, the enrichment is -5.16.
Still for that read-out and setting: then chain 1 Y8R, with -7.16; and chain 1 Y8C, with -8.65; and chain 1 Y8T, with -7.46.
In the case of chain 1 Y8K, the enrichment is -5.04.
For chain 1 Y8N, the enrichment is -7.1.
On the same count and under the same terms, the result for chain 1 Y14C reads -7.29.
Still for that read-out and setting: the result for chain 1 Y14S reads -8.64.
Take chain 1 Y14Q: the enrichment is -7.02.
The same measure, in the same setting: the result for chain 1 Y14T reads -7.91.
As for chain 1 Y14N, the enrichment is -5.87.
The same measure, in the same setting: then chain 1 Y14D, with -6.5.
On to chain 1 Y14E, for which the enrichment was -7.73.
As to chain 1 F15I, the enrichment was -5.23.
Turning to chain 1 F15N, the enrichment was -5.7.
On the same count and under the same terms, then chain 1 C13W, with -8.62; and chain 1 C13H, with -7.62.
In the case of chain 1 C13I, the enrichment was -7.15.
Consider chain 1 C13E, for which the enrichment is -8.9.
Take chain 1 C13A: the enrichment was -9.6.
As to chain 1 C13R, the enrichment is -9.52.
On to chain 1 C13F, for which the enrichment was -7.6.
Same read-out and setting: then chain 1 C13Q, with -8.35; and chain 1 C13Y, with -7.72.
With chain 1 C13T, the enrichment was -8.2.
In the case of chain 1 C13G, the enrichment is -9.4.
Same read-out and setting: then chain 1 C13M, with -8.49; and chain 1 C13K, with -8.09.
For the variant chain 1 C13V, the enrichment is -10.3.
The same measure, in the same setting: then chain 1 E1C, with -8.72; and chain 1 E1Q, with -3.57.
In the case of chain 1 A9H, the enrichment is -7.18.
chain 1 A9D: the enrichment is -7.2.
For the variant chain 1 A9K, the enrichment is -5.6.
For chain 1 A9G, the enrichment is -7.67.
The same measure, in the same setting: the result for chain 1 A9Q reads -6.19; that for chain 1 E2K, -4.12; that for chain 1 E2Q, -3.87.
In the case of chain 1 E2H, the enrichment is -6.61.
For the variant chain 1 E2P, the enrichment was -6.02.
Turning to chain 1 D3Q, the enrichment is -3.96.
Consider chain 1 D3C, for which the enrichment was -8.87.
For chain 1 D3R, the enrichment was -6.43.
The same measure, in the same setting: then chain 1 D3T, with -6.58.
With chain 1 D3A, the enrichment is -6.
chain 1 D3K: the enrichment was -4.33.
chain 1 D3I: the enrichment is -8.83.
On the same count and under the same terms, then chain 1 D3M, with -6.81; and chain 1 D3H, with -5.94; and chain 1 D4K, with -5.85.
Take chain 1 D4R: the enrichment was -6.06.
On to chain 1 D4G, for which the enrichment is -5.19.
For the variant chain 1 D4T, the enrichment was -6.85.
As to chain 1 D4H, the enrichment is -6.74.
Take chain 1 D4P: the enrichment is -6.04.
Consider chain 1 D4N, for which the enrichment was -6.94.
Regarding chain 1 D4E, the enrichment is -4.92.
In the case of chain 1 D4C, the enrichment was -8.21.
As to chain 1 D4A, the enrichment is -7.05.
Consider chain 1 P10R, for which the enrichment was -8.05.
Regarding chain 1 P10S, the enrichment was -8.17.
Take chain 1 P10D: the enrichment is -7.38.
As to chain 1 P10Q, the enrichment is -5.36.
As to chain 1 P10K, the enrichment was -5.94.
For chain 1 P10I, the enrichment is -7.41.
For chain 1 P10C, the enrichment was -8.69.
On to chain 1 P10N, for which the enrichment is -6.99.
chain 1 P10E: the enrichment was -6.87.
On the same count and under the same terms, then chain 1 P10H, with -6.93; and chain 1 P10A, with -7.68.
In the case of chain 1 L11N, the enrichment is -7.42.
With chain 1 L11E, the enrichment was -7.14.
On the same count and under the same terms, then chain 1 L11D, with -8.06; and chain 1 L11G, with -9.22.
As to chain 1 A7C, the enrichment is -8.81.

Another assay covers variants of B4. The following applies: with CXCL13 (biotinylated, synthetic); scale: log2.
For the variant chain 1 E2K, the enrichment is -3.92.
With chain 1 E2R, the enrichment is -5.9.
Same read-out and setting: the result for chain 1 E2C reads -8.79.
On the same count and under the same terms, the result for chain 1 A9C reads -8.86.
Same read-out and setting: then chain 1 A9D, with -7; and chain 1 A9K, with -5.4.
For chain 1 Y8K, the enrichment is -4.84.
Still for that read-out and setting: then chain 1 Y8P, with -6.64; and chain 1 Y8C, with -8.46.
As for chain 1 Y8R, the enrichment was -6.96.
With chain 1 T12K, the enrichment was -6.36.
In the case of chain 1 T12E, the enrichment was -6.73.
On the same count and under the same terms, the result for chain 1 T12G reads -9.07; that for chain 1 D4C, -8.01.
For chain 1 D4T, the enrichment was -6.65.
Turning to chain 1 D4K, the enrichment is -5.65.
With chain 1 D4R, the enrichment was -5.86.
For the variant chain 1 E1C, the enrichment is -8.53.
In the case of chain 1 D3R, the enrichment is -6.23.
chain 1 D3K: the enrichment was -4.13.
Consider chain 1 D3H, for which the enrichment was -5.74.
Consider chain 1 D3C, for which the enrichment is -8.67.
In the case of chain 1 A7C, the enrichment was -8.62.
In the case of chain 1 L11G, the enrichment is -9.02.
On to chain 1 L11Q, for which the enrichment is -5.03.
For the variant chain 1 L11D, the enrichment was -7.86.
chain 1 L11E: the enrichment was -6.94.
Still for that read-out and setting: then chain 1 L11K, with -5.76; and chain 1 L11P, with -6.87; and chain 1 C13F, with -7.4.
Still for that read-out and setting: the result for chain 1 C13D reads -7.93; that for chain 1 C13G, -9.21; that for chain 1 C13H, -7.42.
The same measure, in the same setting: the result for chain 1 C13K reads -7.9.
As to chain 1 C13M, the enrichment is -8.29.
With chain 1 C13W, the enrichment was -8.42.
chain 1 C13R: the enrichment was -9.32.
Consider chain 1 P10K, for which the enrichment is -5.74.
Regarding chain 1 P10R, the enrichment was -7.85.
In the case of chain 1 P10F, the enrichment is -8.19.
On to chain 1 P10C, for which the enrichment is -8.5.
In the case of chain 1 P10T, the enrichment was -6.64.
As for chain 1 P10Y, the enrichment is -7.34.
As for chain 1 P10Q, the enrichment was -5.17.
As for chain 1 P10I, the enrichment was -7.21.
For chain 1 Y14N, the enrichment was -5.67.
For chain 1 Y14K, the enrichment is -6.94.
With chain 1 Y14G, the enrichment was -9.28.
Regarding chain 1 Y14A, the enrichment was -8.81.
Turning to chain 1 Y14L, the enrichment is -9.26.
For the variant chain 1 Y14S, the enrichment was -8.45.
Same read-out and setting: then chain 1 Y14Q, with -6.82.
As for chain 1 Y14R, the enrichment is -8.87.
Take chain 1 Y14E: the enrichment was -7.54.
For the variant chain 1 Y14D, the enrichment is -6.3.
chain 1 Y14P: the enrichment is -7.63.
chain 1 Y14I: the enrichment is -6.05.
The same measure, in the same setting: the result for chain 1 F15D reads -7.37; that for chain 1 F15K, -5.78.
For chain 1 F15N, the enrichment was -5.51.
In the case of chain 1 F15H, the enrichment is -6.08.
As to chain 1 Y5T, the enrichment is -6.44.
On the same count and under the same terms, then chain 1 Y5K, with -4.37.
In the case of chain 1 Y5C, the enrichment was -7.94.
Consider chain 1 Y5R, for which the enrichment is -5.82.
